Assay: soluble on expression in E. coli; label from the status in PepcDB or PDB records

Sequence	soluble on expression in E. coli
GLDTIPTTYVDAGSVFGKTGDAEKVLNGGWNYLMETFNSYANPGYGAMLRANDAMGSDVVLNSKYGFRTHNEFSAIYGKGGTNTLSWLLAYRVINDCNGVLDNIDAAEGTQADRNRIKGQALALRGFLYLHLASCYSFAIDKDPDAVCAPIYTQSTDETIAAEGKPASSVSEVYAQSINDLEEALELIPETYVRDAKHKIDNEVVLGILSRACLYARQWEKAKTYSDKLLAKDNYLMTESEYKAGFNSVDNKEWIWGHAQTNDQSNASYQFHYLDTTTKGSYYYSFNVDPYFRDLFEDGDYRKEMLFWATDPGADVESAAYVWMRNSKFRFRDIENQLGDIVLMRVAEIYLINAEAKAHLNDPDAINKLNDLKTARGAKTIHTNLSQQDLLETIWLERRKELWGEGFSLIDIIRNQQTVVRNAYPEGPIDYIYTDENGQTHTLKKKTQGHRFFNFPDKSAFCPNSKYYLYRITDSEELANKNLYKDHPKLSIYTK	soluble
MESILITGASGFIGSFIVEEALKRKFGVWAGIRPTSSKKYLKNRKIHFLELDFAHPNELRAQLSGHKGTYNKFDYIIHCAGVTKCPDKNTFDYVNYLQTKYFIDTLKALNMVPKQFIYISTLSVFGPVREKDYSPIEAGDVPMPNTAYGLSKLKAELYIQSIPGFPYVIYRPTGVYGPRELDYFLMAKSIRQHVDFSVGFRRQDLTFVYVKDIVQAIFLGIEKKVTRRAYFLTDGKVYNSRVFSDLIQKELGNPFVIHVKCPLIVLKVISLLAEFIATRSGKSSTLNSDKYKIMKQRNWQCDITPAINELGYAPEYDLEKGVRETIDWYKNEGWL	not soluble
MSLTLKLFELVGADAGRPFSPFVWRTRMALAHKGLTAETIPWRFTDKAAIAPYGSEKVPVLLDGDKVVADSWAIANYLEDAYPDRPSLFGGDGGRAMARMLNWWGDLAIIGGIFPMIVADIAQRLDPEDAAYFRQSREARLKTTLEEAAASRDRAVQGFRKSLDPLRLTLKTQAFIGGAAPNYADYIVFGGFQWARVVSDFSLLQSDDPVYAWRERLLDAFGGLARATPGYPVEGHHHHHH	soluble
MSLVLIQGAGIAGLALAREFTKAGIDWLLVERASEIRPIGTGITLASNALTALSSTLDLDRLFRRGMPLAGINVYAHDGSMLMSMPSSLGGNSRGGLALQRHELHAALLEGLDESRIRVGVSIVQILDGLDHERVTLSDGTVHDCSLVVGADGIRSSVRRYVWPEATLRHSGETCWRLVVPHRLEDAELAGEVWGHGKRLGFIQISPREMYVYATLKVRREEPEDEEGFVTPQRLAAHYADFDGIGASIARLIPSATTLVHNDLEELAGASWCRGRVVLIGDAAHAMTPNLGQGAAMALEDAFLLARLWCLAPRAETLILFQQQREARIEFIRKQSWIVGRLGQWESPWSVWLRNTLVRLVPNASRRRLHQRLFTGVGEMAAQEGHHHHHH	not soluble
GHHHHHHHHHHSSGHIEGRHNMPVVIKTEGPAWTPLEPKLITRLADTVRTKGLRSPITMAEVEALMSSPLLPHDVTNLMRVILGPAPYALWMDAWGVQLQTVIAAATRDPRHPANGQGRGERTNLDRLKGLADGMVGNPQGQAALLRPGELVAITASALQAFREVARLAEPAGPWADITQGPSESFVDFANRLIKAVEGSDLPPSARAPVIIDCFRQKSQPDIQQLIRAAPSTLTTPGEIIKYVLDRQKIAPLTDQGIAAAM	soluble
MEKDIKRQIQILEIITSEEKWFTTIEISKILRCCNKTIMKDISFIKDFLPEDWHIKIKKGKGVRIYLPYNKHRNEITFLLFRESLTFRILQHLFERETKTIATLAERLYIQVPSILPALKRVENYLKKFGLKLRKKPLRLEGDEVRIMIMYLDLYLKSYNDTEWPFEKLKKEVIFQYLGTLEESLGISLHVVSKRHLSFFIAILLKRKQQGYKVQLNRKFLYFNTETPDYVKIGRIFEKLEREFGVSLTVQDKILLTISIKSSKYVYKDINKEKEESVQYFKEGNLSIYELVKDFINSLEEKLKVDLISDEEFIFALVDYFKRTIYHLQYLCMFERPQKQTIQYMQTEHSETFSAVKEVYTEFVKKNEIADYVSVEEIAKVTMYIEASRLRYTSNYKKVLLVTGESESWAEYLAATLAKRFGDKIQISTVFFAKKSDHDVNADFIISTIPLDLGSTPIICINSIPTERDYTNIQYYLDLQDG	not soluble
MGSDKIHHHHHHLNAKIVCVSNKQLTISLDDFSGPLDLLLHLIRTQELDIFDLPIAKVTDQFLSFIDNQLNPSLDSAGEYLYMASTLIRIKSRFLLPTVKNEQEDEKEEDPRNELVNALIEYECYQAVTQDMSELEHSRSLSFTRPVAKIPENIEIKPLSAGVTLQDLQKAFLEIANRQKDLHPKKRTIERENFSVADKINEIKTFFGQKKLDSKIEFQYLFKLSSSNDEMITTFLAILELAKDHFILLSQNDEQQIFLTKGEMNA	not soluble
MSGPAHLPYGGIPTFARAPLVQPDGDWQADVAALGVPFDIALGFRPGARFAPRALREASLRSVPPFTGLDGKTRLQGVTFADAGDVILPSLEPQLAHDRITEAARQVRGRCRVPVFLGGDHSVSYPLLRAFADVPDLHVVQLDAHLDFTDTRNDTKWSNSSPFRRACEALPNLVHITTVGLRGLRFDPEAVAAARARGHTIIPMDDVTADLAGVLAQLPRGQNVYFSVDVDGFDPAVIPGTSSPEPDGLTYAQGMKILAAAAANNTVVGLDLVELAPNLDPTGRSELLMARLVMETLCEVFDHVL	soluble
SNAEWESITPPVVDAPAVVEFFSFYCPPCYAFSQTMGVDQAIRHVLPQGSRMVKYHVSLLGPLGHELTRAWALAMVMKETDVIEKAFFTAGMVEKRLHSPDDVRRVFMSATGISRGEYDRSIKSPAVNDMVALQERLFKEYGVRGTPSVYVRGRYHINNAAFGAFSVENFRSRYAAVVRKLLAGNPDAD	soluble
MAHHHHHHMRGCLHFTRVARHKRHDKGGNAHNFAFDTLTKVYRDAVYLPQEKYRRGLMHPERSPGAPPSQAALVAPSSSSDVTNHVGNIGVMSSVATKLSDWMEQQPHHQTKHHTNGGGGTGHASATASCATPIARRSVASSSPSPAPSAAAATTDESHVDDEAIRRRLRAHLFSDKIQPGQPRTPPSTPVATASASPRRSGVQAEILSVYRSMLREVSRMQDADTRRSLSAYIRQEYDKQCDIPRKNIMKIEWRLNYGKRKLEELQAMSKHTKFTMMR	not soluble
MAHHHHHHMERAHGAKDGGSKTLFVTVGSHQFDDLIKQIDTKDFHSFLRRAGFAKMSMQIGQGTYEPQLIYRCSGNGEESLLKRVKFFRYKKDLLKDFQKADLIVSHAGAGTTLEGLRMKKKMLIVVNDKLMGNHQLEFAEFLRSRNYLEVCECLGDLRAHVLRCLRTPAFAPFPAPRPEPFLRDLRALMDGAA	soluble
MTKQPPIAKADLQKTQGNRAPAAVKNSDVISFINQPSMKEQLAAALPRHMTAERMIRIATTEIRKVPALGNCDTMSFVSAIVQCSQLGLEPGSALGHAYLLPFGNKNEKSGKKNVQLIIGYRGMIDLARRSGQIASLSARVVREGDEFSFEFGLDEKLIHRPGENEDAPVTHVYAVARLKDGGTQFEVMTRKQIELVRSLSKAGNNGPWVTHWEEMAKKTAIRRLFKYLPVSIEIQRAVSMDEKEPLTIDPADSSVLTGEYSVIDNSEE	soluble
GGGVMHYTDKAALPADGEAREVAALFDTWNAALATGNPHKVADLYAPDGVLLPTVSNEVRASREQIENYFEMFLTKKPKGVINYRTVRLLDDDSAVDAGVYTFTLTDKNGKKSDVQARYTFVYEKRDGKWLIINHHSSAMPEVDTATATAAVTKAK	soluble
IGKVKYNLGFNLYDAKTKITKYNNETGLFGKDKNDKDTYRVGMELGEIWGYVTDRLYTVDDFDADGKLKAGIPKVEGYNPNPGDILYKDLDDNDIINGGTSTTKDPGDRKIIGNSTRRYQYGIHGGANWKGVSLSFLLQGVGKRDLWIMNDLFYPHYDAWTTVYDTQLNYWTPERTDSYFPRLYEKAAGNTAANTRIQTRYLQDGSYLSIRNITLSYNFPSKWMTKIGVNNLAVFFSGENLYTFDHLPKGLDPERSVTDDLGQRGFTYPYMRQYSFGINLSF	not soluble
GSELKDYYAIMGVKPTDDLKTIKTAYRRLARKYHPDVSKEPDAEARFKEVAEAWEVLSDEQRRAEYDQMWQHR	soluble
MGSDKIHHHHHHMEPHWDDMKVFLAVAREESLSGAGRQLKLDPATVGRRIARLESAYDTPLFAKSPQGYTLTAAGERLLSHGEQAEAAMRSASEALAGTTEGLTGQIRIGAPDGSANYLLPQVCAQISDENPELDIQILALPRIINLSRREADMAVTVSAPTAGHLLVQKITDYKLHMVASRRYLRGHPPIETLADLRGHRMIGYIPDMIFDRELDYLNDIGIERVALASNSVSVQLRQAGHGSGICVAHDFTLPFHGNLRRILTDQVSLTRSFYLVRHQGDQRSERLNRFAEALTRGIRDEVARLEADAMS	not soluble
LENDRTTFRIRNLDSGEIIWSGMGAVYPVYSPSFDHAADAFAFAFSSPADPPEIHLLRDAETKSSINSHLDGVSPYPAEIVEWKAKDGEDLYGILRLIDPKNPLIVYIHGGPTSFSYASFLDRTSIYLGYGFNVFAPNYRGSVGKGRRYAELNVGDLGGKDFDDVISGIEFLKNTGKIATDRIYITGGSYGGYMSALAVMKTDIFRASVSLFGISDWVSFHGVSNLHLWDRLHMDADPWAFKKYDEYSPIRIMHEPKTPTLLMHGIKDPYVPIGQYYEFYRFLKEKNCEVRMIVFPREGHGFTEKEHIRRQYMETIRFMKDH	not soluble
MKLKITLYSVCLLMLLAACQQDGPTPEPSVGSRTVLVYMIAQNSLAPLASADIEEMKEGMRQVDATSGNLLVYIDDYSAPRLIRLGKDKKGKVVEETIENYPEQNSADANVMKKVISTAFNQYKAEKYGMVFWSHGEGWIPSPAKTRWFGQDGNNYMDIADLHAALQVAPDLDFLFFDACFMEAVEVAYALRDCGSYLISSPTEIPGPGAPYQTVVPAMFSAENAALKIASCYYDYYQSRYNDGIGMSNEDWTGGVSVGVAKMSELENLAVATSKVLPRYITGKQNFDLSGVMCYDRRTDKQYYYDLDRFIYQITAGNGDYDSWREAFDKVMVYWKSTPRNYSAYAGMFTMNQDAKGLSTYIPRMSAPSLNTSYQQTEWYKVSGWADTGWYKNLEHHHHHH	not soluble
MSSSTSQDFVSRPVIKKVFAKLQKEGDGAVVRRGISRSEQKLLDPFLMLDEFSVSPPAGFPDHPHRGITHQDFKGHKGTIYAGDVQWMTAGRGIIHSEMPEEEVNKEPNYQELSHSDIPKAEQNGVEVKVIAGESMGIQSPVYTRTPTMFLDFTLQPGAQIHQNVPESWNAFAYILESGEGGGVFSSSNSSPIPAHSVVVFGPGNDGVSVWNKSSSKQLRFVLIAGEPIGEPVVQYGPFVMNTQAEIDMTIEDYHYGKNGFEMAKYWRSQ	not soluble
MGSDKIHHHHHHMQFTINHRTHYLYTDVVNYTIQKLRLTPQDGFGQRVKRWEIRVNGHLQRHDDAYGNAEHLLVLDTPHEEINILATGEVETGLDTPPAHDLLPREIYLRTTALTATDATLRNFAEQFRYDRFTGQILDEMMHAIVDKVPYYRGVTNVNTPAAEAFRSGHGVCQDHAHIFIACCRYLGIPARYVSGYLFTDDGSLMESHAWADACLPSGWISFDVSNRCRTNGVHVRLATGLDYSDACPVSGMRVGGGLETMTVGVHVSQLQSQQ	not soluble
